Assay results: US20230416378A1

Biological target: recombinant human VEGF-A (human) (UniProt P15692)
Test: cell-based or functional assay

Sequence of recombinant human VEGF-A (human) (P15692 other isoform, or with tags, fused parts or gaps limits assumed): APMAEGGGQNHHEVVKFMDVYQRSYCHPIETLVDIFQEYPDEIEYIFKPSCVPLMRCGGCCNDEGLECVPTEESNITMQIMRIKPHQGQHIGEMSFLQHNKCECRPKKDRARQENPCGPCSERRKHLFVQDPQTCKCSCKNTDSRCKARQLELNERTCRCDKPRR

Question: Which VEGF induced cell integrity loss IC50 does the source give for “Eylea (aflibercept), VEGF trap (Fc fusion)” here?
Answer: The VEGF induced cell integrity loss IC50 was 0.33 nM.
